The values below are quoted from earlier work in PMC5689411.

What is called Kd is the free concentration of one partner at which half of the binding sites on the other are occupied at equilibrium, for simple one-to-one binding.

For this data set, the target named is RNR beta2 (Escherichia coli) (UniProt P69924). The experiment in a line: competitive inhibition assay.
UniProt P69924, sequence (P69924 2-376): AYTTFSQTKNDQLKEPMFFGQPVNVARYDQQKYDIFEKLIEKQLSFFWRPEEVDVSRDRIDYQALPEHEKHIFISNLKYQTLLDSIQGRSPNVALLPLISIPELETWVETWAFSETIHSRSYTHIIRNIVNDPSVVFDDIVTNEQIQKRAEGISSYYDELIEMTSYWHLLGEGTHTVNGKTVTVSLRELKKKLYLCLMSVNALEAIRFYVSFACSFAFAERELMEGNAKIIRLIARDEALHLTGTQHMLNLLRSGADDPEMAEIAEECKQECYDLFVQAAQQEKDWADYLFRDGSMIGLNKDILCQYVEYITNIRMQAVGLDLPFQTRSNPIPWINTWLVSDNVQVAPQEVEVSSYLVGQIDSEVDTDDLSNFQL

As to RNR alpha2 (from UniProt P00452), the Kd is 180 nM.
